Experimental findings from patent US20030134779A1, “Method and composition for treatment and/or prevention of antibiotic-resistant microorganism infections” (priority 2002, published 2003) are described below.

In data set [1] the test system is β-lactamase activity of S. aureus PC-1. The experiment in a line: β-lactamase activity, nitrocefin assay, human LF. The format is cell-based. As to conditions: incubation for 4 h.
Data set [2] concerns β-lactamase activity of S. aureus SHY97-4320. Briefly: β-lactamase activity, nitrocefin assay, human LF. The format is cell-based, Staphylococcus aureus. On the procedure: Penicillin G was purchased from Novopharm Limited (Toronto, Ontario, Canada). […] Antibiotic stock solutions were always freshly prepared and diluted to the desired concentration in Mueller Hinton broth (MHB) medium (Difco Laboratories, Detroit, MI). β-Lactamase activity was measured using a quantitative spectrophotometric assay with the chromogenic cephalosporin nitrocefin. Bacterial cells were first exposed to penicillin and/or LF during 4 and 22-h in broth. At each time point, the number of cfu/ml were determined and cells aliquots were centrifuged.
The pellets were suspended in 10 mM HEPES buffer (pH 7.4) to an OD415 nm of 0.4 for PC-1 and 4 for strain SHY97-4320. Nitrocefin (100 μM) was added to 20 μl of cells in a final volume of 200 μl. Hydrolysis was measured at 486 nm on a Spectra Max 250 Microplate Spectrophotometer System of Molecular Device (Fisher Scientific, Ottawa, Canada). β-Lactamase activity was expressed as ΔO.D.486 nm/min and corrected for bacterial OD.

Sequence of β-lactamase activity of S. aureus SHY97-4320 (P00807 25-281): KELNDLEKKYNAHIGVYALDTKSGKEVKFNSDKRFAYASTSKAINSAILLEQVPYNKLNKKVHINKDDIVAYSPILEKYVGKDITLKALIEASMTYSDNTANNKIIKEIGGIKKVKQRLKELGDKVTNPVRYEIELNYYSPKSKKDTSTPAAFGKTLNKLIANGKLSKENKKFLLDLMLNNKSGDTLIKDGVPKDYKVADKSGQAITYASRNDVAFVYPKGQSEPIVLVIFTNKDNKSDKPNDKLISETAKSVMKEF
Sequence of β-lactamase activity of S. aureus PC-1 (P00807 25-281): as above

B1: human LF: Human LF (Sigma) (protein, UniProt P02788 20-710, looked up)
Lactotransferrin: GRRRSVQWCAVSQPEATKCFQWQRNMRKVRGPPVSCIKRDSPIQCIQAIAENRADAVTLDGGFIYEAGLAPYKLRPVAAEVYGTERQPRTHYYAVAVVKKGGSFQLNELQGLKSCHTGLRRTAGWNVPIGTLRPFLNWTGPPEPIEAAVARFFSASCVPGADKGQFPNLCRLCAGTGENKCAFSSQEPYFSYSGAFKCLRDGAGDVAFIRESTVFEDLSDEAERDEYELLCPDNTRKPVDKFKDCHLARVPSHAVVARSVNGKEDAIWNLLRQAQEKFGKDKSPKFQLFGSPSGQKDLLFKDSAIGFSRVPPRIDSGLYLGSGYFTAIQNLRKSEEEVAARRARVVWCAVGEQELRKCNQWSGLSEGSVTCSSASTTEDCIALVLKGEADAMSLDGGYVYTAGKCGLVPVLAENYKSQQSSDPDPNCVDRPVEGYLAVAVVRRSDTSLTWNSVKGKKSCHTAVDRTAGWNIPMGLLFNQTGSCKFDEYFSQSCAPGSDPRSNLCALCIGDEQGENKCVPNSNERYYGYTGAFRCLAENAGDVAFVKDVTVLQNTDGNNNEAWAKDLKLADFALLCLDGKRKPVTEARSCHLAMAPNHAVVSRMDKVERLKQVLLHQQAKFGRNGSDCPDKFCLFQSETKNLLFNDNTECLARLHGKTTYEKYLGPQYVAGITNLKKCSTSPLLEACEFLRK
As to B1, the “reduction of β-lactamase activity” value in data set [1] is reported as 50%. The β-lactamase activity entry is given as “an important reduction of the β-lactamase activity” in data set [2] (1 mg/ml human LF added at the same time as 8 μg/ml penicillin G, P<0.001) and “no β-lactamase activity” in data set [2] (human LF 1 mg/ml alone).
